Measurements reported in the supplement of paper PMC10724198.

Experiments:
Saccharomyces cerevisiae [1] = assay: protein stability index of tFT-peptide fusion in deletion strain of DOA10 (PSI (0-1 scale)); higher = more stable (slower turnover)
Experimental: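 MPS profiling in S. cerevisiae of two library types built from selected 12-aa C-degron peptides (IN1, IN2, LN1, LN3, VN2, R1-R5, W1-W3, Atg1 and Rpa12 C-termini): saturation mutagenesis libraries and C-terminal +1 capping libraries (13 aa). Each peptide is fused to the C-terminus of a sfGFP-mCherry timer, after a GGGS linker. Cells are FACS-sorted into 8 mCherry/sfGFP bins and sequenced. PSI runs from 0 (unstable) to 1 (stable), measured once in wild type and in the das1Δ or doa10Δ background.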

Saccharomyces cerevisiae [2] = assay: protein stability index of tFT-peptide fusion in wild type (PSI (0-1 scale)); higher = more stable (slower turnover); conditions: genetic background: wild type
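For protein stability index of tFT-peptide fusion in deletion strain of DOA10 in this document: PSI per variant is the weighted mean of its sequencing read distribution over the sorted stability bins, counting only variants with over 10 reads summed across bins.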
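For protein stability index of tFT-peptide fusion in wild type in this document: PSI derived as read-weighted mean over the 8 sorting bins, only variants exceeding 10 total reads kept, mCherry placed adjacent to the peptide and sfGFP distal.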

GLKMCSVGCWFR
protein stability index (Saccharomyces cerevisiae [1]): 0.678
protein stability index (Saccharomyces cerevisiae [2]): 0.247

GLYMCKVGCWFR
protein stability index (Saccharomyces cerevisiae [1]): 0.631
protein stability index (Saccharomyces cerevisiae [2]): 0.396

GLYMCSIGCWFR
protein stability index (Saccharomyces cerevisiae [1]): 0.602
protein stability index (Saccharomyces cerevisiae [2]): 0.231

GLYMCSKGCWFR
protein stability index (Saccharomyces cerevisiae [1]): 0.673
protein stability index (Saccharomyces cerevisiae [2]): 0.489

GLYMCSVECWFR
protein stability index (Saccharomyces cerevisiae [1]): 0.465
protein stability index (Saccharomyces cerevisiae [2]): 0.456

GLYMCSVGCWFQ
protein stability index (Saccharomyces cerevisiae [1]): 0.504
protein stability index (Saccharomyces cerevisiae [2]): 0.476

GLYMCSVGCWFRY
protein stability index (Saccharomyces cerevisiae [1]): 0.619
protein stability index (Saccharomyces cerevisiae [2]): 0.173

GLYMCSVGCWFV
protein stability index (Saccharomyces cerevisiae [1]): 0.467
protein stability index (Saccharomyces cerevisiae [2]): 0.4

GLYMCSVGCWKR
protein stability index (Saccharomyces cerevisiae [1]): 0.66
protein stability index (Saccharomyces cerevisiae [2]): 0.612

GLYMCSVGCWSR
protein stability index (Saccharomyces cerevisiae [1]): 0.622
protein stability index (Saccharomyces cerevisiae [2]): 0.584

GLYMCSVGCWYR
protein stability index (Saccharomyces cerevisiae [1]): 0.611
protein stability index (Saccharomyces cerevisiae [2]): 0.407

GLYMCSVGTWFR
protein stability index (Saccharomyces cerevisiae [1]): 0.668
protein stability index (Saccharomyces cerevisiae [2]): 0.514

GLYMCSVGVWFR
protein stability index (Saccharomyces cerevisiae [1]): 0.453
protein stability index (Saccharomyces cerevisiae [2]): 0.198

GLYMCSVVCWFR
protein stability index (Saccharomyces cerevisiae [1]): 0.314
protein stability index (Saccharomyces cerevisiae [2]): 0.253

GLYMCSWGCWFR
protein stability index (Saccharomyces cerevisiae [1]): 0.665
protein stability index (Saccharomyces cerevisiae [2]): 0.296

GLYMKSVGCWFR
protein stability index (Saccharomyces cerevisiae [1]): 0.673
protein stability index (Saccharomyces cerevisiae [2]): 0.257

GLYNCSVGCWFR
protein stability index (Saccharomyces cerevisiae [1]): 0.674
protein stability index (Saccharomyces cerevisiae [2]): 0.414

GLYRCSVGCWFR
protein stability index (Saccharomyces cerevisiae [1]): 0.67
protein stability index (Saccharomyces cerevisiae [2]): 0.428

GVYMCSVGCWFR
protein stability index (Saccharomyces cerevisiae [1]): 0.622
protein stability index (Saccharomyces cerevisiae [2]): 0.276

GYYMCSVGCWFR
protein stability index (Saccharomyces cerevisiae [1]): 0.643
protein stability index (Saccharomyces cerevisiae [2]): 0.227

LITLPMCPLLLR
protein stability index (Saccharomyces cerevisiae [1]): 0.626
protein stability index (Saccharomyces cerevisiae [2]): 0.349

NVTRLDAIYFRI
protein stability index (Saccharomyces cerevisiae [1]): 0.711
protein stability index (Saccharomyces cerevisiae [2]): 0.379

RGLRVLLPLYFR
protein stability index (Saccharomyces cerevisiae [1]): 0.673
protein stability index (Saccharomyces cerevisiae [2]): 0.378

RGTRLDAIYFRI
protein stability index (Saccharomyces cerevisiae [1]): 0.684
protein stability index (Saccharomyces cerevisiae [2]): 0.57

RSHRVLLPLYFR
protein stability index (Saccharomyces cerevisiae [1]): 0.651
protein stability index (Saccharomyces cerevisiae [2]): 0.317

RSLEVLLPLYFR
protein stability index (Saccharomyces cerevisiae [1]): 0.691
protein stability index (Saccharomyces cerevisiae [2]): 0.219

RSLNVLLPLYFR
protein stability index (Saccharomyces cerevisiae [1]): 0.669
protein stability index (Saccharomyces cerevisiae [2]): 0.266

RSLQVLLPLYFR
protein stability index (Saccharomyces cerevisiae [1]): 0.675
protein stability index (Saccharomyces cerevisiae [2]): 0.264

RSLRGLLPLYFR
protein stability index (Saccharomyces cerevisiae [1]): 0.696
protein stability index (Saccharomyces cerevisiae [2]): 0.444

RSLRRLLPLYFR
protein stability index (Saccharomyces cerevisiae [1]): 0.683
protein stability index (Saccharomyces cerevisiae [2]): 0.466

RSLRVCLPLYFR
protein stability index (Saccharomyces cerevisiae [1]): 0.671
protein stability index (Saccharomyces cerevisiae [2]): 0.194

RSLRVLHPLYFR
protein stability index (Saccharomyces cerevisiae [1]): 0.701
protein stability index (Saccharomyces cerevisiae [2]): 0.218

RSLRVLLNLYFR
protein stability index (Saccharomyces cerevisiae [1]): 0.659
protein stability index (Saccharomyces cerevisiae [2]): 0.397

RSLRVLLPEYFR
protein stability index (Saccharomyces cerevisiae [1]): 0.677
protein stability index (Saccharomyces cerevisiae [2]): 0.653

RSLRVLLPFYFR
protein stability index (Saccharomyces cerevisiae [1]): 0.668
protein stability index (Saccharomyces cerevisiae [2]): 0.564

RSLRVLLPIYFR
protein stability index (Saccharomyces cerevisiae [1]): 0.663
protein stability index (Saccharomyces cerevisiae [2]): 0.242

RSLRVLLPLNFR
protein stability index (Saccharomyces cerevisiae [1]): 0.671
protein stability index (Saccharomyces cerevisiae [2]): 0.535

RSLRVLLPLPFR
protein stability index (Saccharomyces cerevisiae [1]): 0.676
protein stability index (Saccharomyces cerevisiae [2]): 0.64

RSLRVLLPLYFRM
protein stability index (Saccharomyces cerevisiae [1]): 0.411
protein stability index (Saccharomyces cerevisiae [2]): 0.202

RSLRVLLPLYQR
protein stability index (Saccharomyces cerevisiae [1]): 0.659
protein stability index (Saccharomyces cerevisiae [2]): 0.617

RSLRVLLPLYRR
protein stability index (Saccharomyces cerevisiae [1]): 0.673
protein stability index (Saccharomyces cerevisiae [2]): 0.624

RSLRVLLQLYFR
protein stability index (Saccharomyces cerevisiae [1]): 0.606
protein stability index (Saccharomyces cerevisiae [2]): 0.383

RSLRVVLPLYFR
protein stability index (Saccharomyces cerevisiae [1]): 0.679
protein stability index (Saccharomyces cerevisiae [2]): 0.178

RSLSVLLPLYFR
protein stability index (Saccharomyces cerevisiae [1]): 0.682
protein stability index (Saccharomyces cerevisiae [2]): 0.289

RTLRVLLPLYFR
protein stability index (Saccharomyces cerevisiae [1]): 0.657
protein stability index (Saccharomyces cerevisiae [2]): 0.304

RTTRLDAIYFRI
protein stability index (Saccharomyces cerevisiae [1]): 0.658
protein stability index (Saccharomyces cerevisiae [2]): 0.498

RVGRLDAIYFRI
protein stability index (Saccharomyces cerevisiae [1]): 0.647
protein stability index (Saccharomyces cerevisiae [2]): 0.412

RVTRADAIYFRI
protein stability index (Saccharomyces cerevisiae [1]): 0.684
protein stability index (Saccharomyces cerevisiae [2]): 0.525

RVTRDDAIYFRI
protein stability index (Saccharomyces cerevisiae [1]): 0.684
protein stability index (Saccharomyces cerevisiae [2]): 0.652
